Target: the molecule itself
Assay: cryo-EM structure; Pra1:Zn2+ complex; 20 mM Tris-HCl pH 8.0, 150 mM NaCl, 1 mM ZnSO4, 0.05% BSA as additive; C1 map, 2.5 Å

B1: Candida albicans Pra1, recombinant wild type (full-length excluding the signal peptide) (natural protein)
chain: APVTVTRFVDASPTGYDWRADWVKGFPIDSSCNATQYNQLSTGLQEAQLLAEHARDHTLRFGSKSPFFRKYFGNETASAEVVGHFDNVVGADKSSILFLCDDLDDKCKNDGWAGYWRGSNHSDQTIICDLSFVTRRYLTQLCSSGYTVSKSKTNIFWAGDLLHRFWHLKSIGQLVIEHYADTYEEVLELAQENSTYAVRNSNSLIYYALDVYAYDVTIPGEGCNGDGTSYKKSDFSSFEDSDSGSDSGASSTASSSHQHTDSNPSATTDANSHCHTHADGEVHC
modifications: N-linked glycosylation at Asn 48, Asn 89, Asn 135 and Asn 208; three intramolecular disulfide bonds
notes: Pra1 of Candida albicans, codon-optimized full-length PRA1 excluding the signal peptide; the precursor is 299 amino acids including its N-terminal signal peptide; residues 31-251 are seen in the cryo-EM maps; A TEV protease site stood between the His-tag and Pra1; also called zincophore Pra1; wild-type Pra1; not shown: His-tag, N-terminal, cleaved
B1 was tested. Which “stoichiometry N” value did it give?
The value was 6.

Reference: article PMC12663325, “Structural insights into mechanisms of zinc scavenging by the Candida albicans zincophore Pra1” (Nature Communications, 2025)
